Source: US5064430A, “Polynonapeptide bioelastomers having an increased elastic modulus” (UAB Research Foundation, priority 1989, dated 1991)
Read-outs that look alike come from different tables or passages of the source. Ends that are not written are not given here.

Columns and labels:
[1] = high molecular weight, cross-linked by γ-irradiation (background); cited from earlier work
[2] = Temperature profiles of turbidity formation / coacervation (light scattering at 300 nm); type: physicochemical; details: for onset of aggregation (coacervation): high molecular weight polymer in water; for midpoint of the temperature profile of turbidity formation / coacervation: 40 mg/ml (high concentration limit)
Method: FIG. 3 illustrates temperature profiles of turbidity (TP.tau.) data for poly(VPGFGVGAG) at 40 mg/ml and 1 mg/ml concentrations in H2 O. The aggregational process was monitored by measuring light scattering at 300 nm as a function of temperature using a Cary 14 recording spectrophotometer.
The temperature dependence for aggregation of the polypentapeptide is followed as the development of turbidity at 300 nm using a Cary 14 spectrophotometer. The sample cell is placed within a chamber vibrating at 300 Hz in order to facilitate equilibrium and to keep the aggregates from settling. The scan rate is 30° C./hour and the temperature was controlled with a Neslab ETP-3 programmer and monitored with an Omega 199A thermocouple monitor placed at the cell. The turbidity as a function of temperature provides a temperature profile for coacervation which is found to be concentration dependent. As the concentration is raised, the profile shifts to lower temperatures until further increases in concentration cause no further lowering of the temperature for aggregation. This defines the high concentration limit. The temperature for the onset of coacervation at the high concentration limit coincides with the temperature for the onset of the transition within the coacervate itself, even when there is no appreciable change in water content of the coacervate. […] When the midpoint is 25° C. for the PPP, the molecular weight is close to 100,000 daltons as calibrated by dialysis. For the Ile^1 -PPP with a midpoint of 9° C., the molecular weight is greater than 50,000 daltons, as the synthetic polypeptide was retained by a 50,000 daltons dialysis membrane. The dialysis was carried out at 4° C. where the Ilel-PPP is in solution.
Polypeptide coacervation in water is reversible aggregation to form a new phase with a distinct composition. Association occurs on raising the temperature, disassociation on lowering the temperature. The process of coacervation was followed by monitoring the turbidity as a function of temperature using a Cary 14 spectrophotometer set at 300 nm, a Neslab ETP-3 temperature programmer with a 30° C./hour scan rate and an Omega 199A thermocouple monitor. The sample cell was placed in a vibrating chamber (300 Hz) to keep the aggregates from settling and to facilitate equilibrium. The temperature profiles for coacervation are concentration dependent. Dilution from a high concentration, after the high concentration limit is reached (approximately 40 mg/ml for high molecular weight elastomeric polypeptides), results in a shift of the turbidity profile to higher temperature.

[3] = Thermoelasticity studies (elastomeric force as a function of temperature); type: physicochemical; details: γ-irradiation cross-linked (20 Mrad), fixed extension (40%), in water
Method: Thermoelasticity studies were carried out on a stress-stain instrument built in this Laboratory. The sample is mounted in two Delrin clamps. The top clamp is attached to a Statham UTC strain-gauge and the assembly is fixed. The bottom clamp is attached to a moving platform driven by a variable speed motor. Both clamps are enclosed in a thermostated water jacket. An inner chamber contains the solvent in which the elastomer is immersed which in this case is doubly distilled water. The sample was fixed in the top clamp and equilibrated in water at 60° C. for about an hour. The strain-gauge signal conditioner was balanced for zero force and the bottom clamp was attached to the sample. The sample was left to set overnight at room temperature. The bottom clamp was then adjusted for zero force and the distance between the clamps was measured. The elastomer was elongated to 40% extension at 5° C. and elastomeric force was then determined as a function of temperature. Equilibrium time to achieve constant force at a given temperature was typically twenty-four hours. Force measurements were made in 2° C. increments through the sharp rise in force and 5° C. increments at higher temperatures.
Thermoelasticity studies were carried out on a stress-strain apparatus. Clamping of the sample in the holder was done in two stages to prevent damage to the material at the clamp edge. The sample was first gripped lightly with the top clamp, raised to 60° C. while submerged in water within the temperature jacket and allowed to equilibrate for about 2 hours. The measured force consisting of the weight of the sample and grips in water were set to zero. The bottom grip was then attached to the sample and both grips tightened to hold the sample firmly. The bottom clamp was driven as in a stress-strain measurement and stopped at 40% elongation. Force data were recorded in 5° C. steps starting at 70° C. and continuing to 40° C. where the force approached zero.

[4] = Solubility in water as a function of temperature; type: physicochemical
[5] = tested on: fibroblasts; test: Checkerboard assay of Zigmond and Hirsch (chemotaxis) with fibroblasts; type: cell-based
Description: The chemotaxis of the present polynonapeptide towards fibroblasts and endothelial cells can be determined and verified by the well known checkerboard assay of Zigmond and Hirsch. […] Checkerboard analysis of AGVPGFGVG and GFGVGAGVP sequences with fibroblasts using the procedure as described above afforded the following results which are represented graphically in Tables I and II.

[6] = Stress/strain studies of γ-irradiation cross-linked matrices (elastic modulus); type: physicochemical; details: 25 Mrad cross-linking dose

| Substance | elastic modulus [1] | onset of aggregation (coacervation) [2] [°C] | midpoint of the temperature profile of turbidity formation / coacervation ([2]; in water) | temperature of essentially full elastic contraction / maximal elastomeric force [3] | temperature below which soluble in water [4] | Checkerboard analysis with fibroblasts, positive control ([5]; PDGF at 30 μg/ml (Table II experiment)) | Checkerboard analysis with fibroblasts, positive control ([5]; PDGF at 60 μg/ml (Table I experiment)) | midpoint of the temperature profile of turbidity formation ([2]; in water, 1 mg/ml) | elastic modulus [6] |
| --- | --- | --- | --- | --- | --- | --- | --- | --- | --- |
| (Val-Pro-Gly-Val-Gly)n (VPGVG; also: polymer of repeating pentamer, (VPGVG)n) [PPP, reference compound] | ~10^6 dynes/cm^2 | 24 | 25 °C | 40 °C | – | – | – | – | – |
| H-(Gly-Gly-Val-Pro)n -OH (H-GGVP-OH; also: repeated n times (polymer)) [PTP] | – | 48 | 49 °C | ~70 °C | below 40 °C | – | – | – | – |
| H-(Gly-Val-Gly-Ile-Pro)n -OH (H-GVGIP-OH; also: polymer, (GVGIP) repeated n times) [Ile^1 -PPP] | – | ~8 | 9 °C | about 25 °C | below 8 °C | – | – | – | – |
| PDGF | – | – | – | – | – | 59 | 21 | – | – |
| Poly[Ala-Gly-Val-Pro-Gly-Phe-Gly-Val-Gly]-OH [poly(VPGFGVGAG)] | – | – | about 8 °C | – | below 5 °C | – | – | about 11 °C | 10^8 dynes/cm^2 |
